Consider 4 molecules from patent US20160052998A1 (GlaxoSmithKline, published 2016).

What is called Kd is the constant that tells how readily two partners part at equilibrium.

B4: Rat Serum Albumin (other, UniProt P02770 25-608, looked up)
chain: EAHKSEIAHRFKDLGEQHFKGLVLIAFSQYLQKCPYEEHIKLVQEVTDFAKTCVADENAENCDKSIHTLFGDKLCAIPKLRDNYGELADCCAKQEPERNECFLQHKDDNPNLPPFQRPEAEAMCTSFQENPTSFLGHYLHEVARRHPYFYAPELLYYAEKYNEVLTQCCTESDKAACLTPKLDAVKEKALVAAVRQRMKCSSMQRFGERAFKAWAVARMSQRFPNAEFAEITKLATDVTKINKECCHGDLLECADDRAELAKYMCENQATISSKLQACCDKPVLQKSQCLAEIEHDNIPADLPSIAADFVEDKEVCKNYAEAKDVFLGTFLYEYSRRHPDYSVSLLLRLAKKYEATLEKCCAEGDPPACYGTVLAEFQPLVEEPKNLVKTNCELYEKLGEYGFQNAVLVRYTQKAPQVSTPTLVEAARNLGRVGTKCCTLPEAQRLPCVEDYLSAILNRLCVLHEKTPVSEKVTKCCSGSLVERRPCFSALTVDETYVPKEFKAETFTFHSDICTLPDKEKQIKKQTALAELVKHKPKATEDQLKTVMGDFAQFVDKCCKAADKDNCFATEGPNLVARSKEALA
notes: mature; 'mature' inferred from purified serum protein; also called RSA; rat SA

Where “and” joins values, the source holds several entries; their conditions need not be identical. Equal entries are not always repeated.

Assay [1] has as its target T1, mouse serum albumin (mouse, UniProt P07724 25-608).
T1 construct: mature; 'mature' inferred from purified serum protein; also called MSA; mouse SA
Kind of assay: SPR (BIAcore), albumin amine-coupled to CM5 chip.

Assay [2] deals with B4. Put plainly: SPR (BIAcore), albumin amine-coupled to CM5 chip. A general note: Surface plasmon resonance follows binding to a sensor surface in real time, without labels.
In assay [3] the target is T2, Human Serum Albumin (human, UniProt P02768 25-609).
T2 construct: also called HSA; human SA
Kind of assay: SPR (BIAcore), albumin amine-coupled to CM5 chip.

For assay [4], the target named is T3, Cynomolgus monkey Serum Albumin (Cynomolgus monkey, UniProt A2V9Z4 25-608).
T3 construct: mature; 'mature' inferred from purification out of serum; also called CSA; cyno serum albumin
Kind of assay: SPR (BIAcore), albumin amine-coupled to CM5 chip.

Assay [5] deals with T1, mouse serum albumin. Put plainly: SPR (BIAcore), albumin amine-coupled to CM5 chip; no KD given.
The target of assay [6] is B4. The description is as above.
Assay [7] addresses T2, Human Serum Albumin. The assay is described as above.
For assay [8], the target named is T3, Cynomolgus monkey Serum Albumin. Described as above.
Assay [9] concerns the target T1, mouse serum albumin. Kind of assay: SPR (BIAcore); multiple independent measurements (first of two values of 12).
In assay [10] the target is T1, mouse serum albumin. Kind of assay: SPR (BIAcore); multiple independent measurements.
Assay [11] addresses T1, mouse serum albumin. Kind of assay: SPR (BIAcore); multiple independent measurements (second of two values of 12).
Assay [12] concerns the target T4, DOM7h-11-15/Exendin-4 fusion DMS number 7143.
T4 construct: Exendin-4 - (G4S)3 - AlbudAb, made in HEK293E; also called DMS7143
Kind of assay: SPR (BIAcore); KD as listed in PK table.

B1: DOM7r-92-4 (other)
VH: EVQLLESGGGLVQPGGSLRLSCAASGFTFDTSSMLWVRQAPGKGLEWVSVIHQSGTPTYYADSVKGRFTISRDNSKNTLYLQMNSLRAEDTAVYYCAKFPSTHGKFDYWGQGTLVTVSS
notes: Anti-serum albumin VH dAb (VH AlbudAb); also called DOM7h-92-4
Consider B1, for which the Kd in [1] amounted to 110 nM; in assay [2] it was 260 nM; in assay [3] it was 130 nM; in assay [4], 98 nM.

B2: DOM7r31 (other)
VH: EVQLLESGGGLVQPGGSLRLSCTASGFTFRHYRMGWVRQAPGKGLEWVSWIRPDGTFTYYADSVKGRFTISRDNSKNTLYLQMNSLRAEDTAVYYCAKSYMGDRFDYWGQGTLVTVSS
notes: Anti-serum albumin VH dAb (VH AlbudAb)
With B2, the binding result in assay [5], in [6], in [7] and in assay [8] was “binds” in each case.

B3: DOM7r-31-14 (other)
VH: EVQLLESGGGLVQPGGSLRLSCTASGFTFRHYRMGWVRQAPGKGLEWVSWIRPDGTFTYYADSVKGRFTISRDNSKNTLYLQMNSLRAEDTAVYYCAKSYMADRFDYWGQGTLVTVSS
notes: as for B2
As to B3, the Kd in assay [9] is 12 nM; in assay [10], 6 nM and 14.2 nM; in assay [11], 12 nM.
In turn, B4 displayed a Kd in assay [12] of 273 nM.
